# Experimental data as given in paper PMC5491494, “Functional and dynamic polymerization of the ALS-linked protein TDP-43 antagonizes its pathologic aggregation” (Nature Communications, 2017).
# B1: wild-type superoxide dismutase 1 (SOD1), endogenous mouse (enzyme)
# chain: not shown
# notes: superoxide dismutase 1, mouse, endogenous in brain slices; source: endogenous, mouse brain slices
# Target: the molecule itself
# Assay: cross-linking; in situ 1 mM DSG on minced human brain tissue (cerebellum, motor cortex) or mouse organotypic brain slices (control or 0.25 mM arsenite for 2 h), 37 °C, 30 min, quenched with 20 mM Tris; nucleo-cytoplasmic fractionation; immunoblot
protein,measurement,value
B1,stoichiometry N,2
